Measurements from patent publication US20120177636A1.

Legend:
CA215 (human) [1] = experiment: two-step ELISA on OC-3-VGH cancer cells, goat anti-mouse IgG-ALP; OD over that of normal mouse IgG at the same concentration
CA215 (human) [2] = experiment: direct binding EIA on OC-3-VGH cell-coated wells, without NaIO4 treatment
CA215 (human) [3] = experiment: sandwich EIA: antibody coated at 5 µg/ml, OC-3-VGH shed medium, HRP-labeled RP215 as detector; with 10 µg/ml human IgG
[4] = target: CA215 on NaIO4-treated OC-3-VGH cancer cells (human); experiment: direct binding EIA on OC-3-VGH cell-coated wells, with NaIO4 treatment
CA215 (human) [5] = experiment: sandwich EIA: antibody coated at 5 µg/ml, OC-3-VGH shed medium, HRP-labeled RP215 as detector; no human IgG
[6] = target: RP215 monoclonal antibody; experiment: ELISA, RP215 coated in wells, goat antibody as detector; row normalised to RP215
human IgG (human) = experiment: ELISA, human IgG coated in wells, goat antibody as detector; row normalised to RP215
humanized RP215 = experiment: ELISA, hRP215 coated in wells, goat antibody as detector; row normalised to RP215
chimeric RP215 mAb = experiment: ELISA, chRP215 coated in wells, goat antibody as detector; row normalised to RP215
CA215 (human) [7] = experiment: sandwich EIA: antibody coated at 5 µg/ml, OC-3-VGH shed medium, HRP-labeled RP215 as detector; no human IgG; relative to RP215
CA215 (human) [8] = experiment: sandwich EIA: antibody coated at 5 µg/ml, OC-3-VGH shed medium, HRP-labeled RP215 as detector; with 10 µg/ml human IgG; relative to RP215

Chain of chimeric RP215 mAb (VH, as listed by the source, chain 1 of 2): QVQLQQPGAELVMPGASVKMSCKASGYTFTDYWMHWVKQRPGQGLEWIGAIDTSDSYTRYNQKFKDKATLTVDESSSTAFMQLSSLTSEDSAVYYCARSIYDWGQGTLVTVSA
Chain of chimeric RP215 mAb (VL, as listed by the source, chain 2 of 2): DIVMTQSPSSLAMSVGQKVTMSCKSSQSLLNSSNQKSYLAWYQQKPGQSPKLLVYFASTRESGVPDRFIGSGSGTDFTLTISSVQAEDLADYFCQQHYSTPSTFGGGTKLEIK
Chain of RP215 monoclonal antibody (VH, as listed by the source, chain 1 of 2): as the sequence (VH, as listed by the source, chain 1 of 2) above
Chain of RP215 monoclonal antibody (VL, as listed by the source, chain 2 of 2): as the sequence (VL, as listed by the source, chain 2 of 2) above

What does the source list for RP215 monoclonal antibody?
ODs405/ODn405 (CA215 (human) [1]): 11.6; Optical Density at 450 nm (CA215 (human) [2]): 2.15; percent maximum binding (CA215 (human) [2]): 100%; Relative Signal Intensity in Sandwich EIA (CA215 (human) [3]): 100%; Optical Density at 450 nm [4]: 0.797; percent maximum binding [4]: 37%; Relative Signal Intensity in Sandwich EIA (CA215 (human) [5]): 100%

goat anti-mouse IgG (antibody) was tested. Which Relative Intensity [6] did it give?
Its Relative Intensity is 100%.

And the Relative Intensity (human IgG (human))?
The Relative Intensity was 3%.

What about the Relative Intensity (humanized RP215) of the same substance?
The Relative Intensity was 5%.

What about the Relative Intensity (chimeric RP215 mAb) of the same substance?
The Relative Intensity was 7%.

With chimeric RP215 mAb (antibody) as the substance, how does the Relative Signal Intensity in Sandwich EIA (CA215 (human) [7]) read?
Its Relative Signal Intensity in Sandwich EIA is 14.5%.

And the Relative Signal Intensity in Sandwich EIA (CA215 (human) [8])?
Its Relative Signal Intensity in Sandwich EIA is 15.4%.
